Here are results for 32 variants from the RNAGym collection of RNA variant scans (doi:10.7554/elife.80360).

B1: HDV Ribozyme (parent)
chain: GGCCGGCAUGGUCCCAGCCUCCUCGCUGGCGCCGGCUGGGCAACAUUCCGAGGGGACCGUCCCCUCGGUAAUGGCGAAUGGGACCCA

The variants in this data set derive from B1. Kind of data set: self-cleavage, relative activity (ratio to wild type); higher = more cleavage; co-transcriptional.
GGCCGGCCUGGUCCCAGCCUCCUCGCUGGCGCCGGCUGGGCAACAUUCCGAGGGGGCCGUCCCCUCGGUAAUGGCGAAUGGGACCCA [A8C A56G]: the self-cleavage came out at 0.939.

For GGCCGGCCUGGUCCCAGCGUCCUCGCUGGCGCCGGCUGGGCAACAUUCCGAGGGGACCGUCCCCUCGGUAAUGGCGAAUGGGACCCA [A8C C19G], the self-cleavage is 0.115.

For GGCCGGCCUGGUCCCAGCUUCCUCGCUGGCGCCGGCUGGGCAACAUUCCGAGGGGACCGUCCCCUCGGUAAUGGCGAAUGGGACCCA [A8C C19U], the self-cleavage amounted to 0.0739.

As for GGCCGGCCUGGUCCCAGCCUCCUCGCUGGCGCCGGCUGGGCAGCAUUCCGAGGGGACCGUCCCCUCGGUAAUGGCGAAUGGGACCCA [A8C A43G], the self-cleavage was 0.151.

For the variant GGCCGGCCUGGUCCCAGCCUCCUCGCUGGCGCCGGCUGGGCACCAUUCCGAGGGGACCGUCCCCUCGGUAAUGGCGAAUGGGACCCA [A8C A43C], the self-cleavage is 0.185.

In the case of GGCCGGCCUGGUCCCAGCCUCCUCGCUGGCGCCGGCUGGGCAACAUUCCGAGGGGACCGUCCCCUCGGUAUUGGCGAAUGGGACCCA [A8C A71U], the self-cleavage is 0.427.

Take GGCCGGCCUGGUCCCAGCCUCCUCGCUGGCGCCGGCUGGGCAACAUUCCGAGGGGACCGUCCCCUCGGUACUGGCGAAUGGGACCCA [A8C A71C]: the self-cleavage was 0.308.

As to GGCCGGCCUGGUCCCAGGCUCCUCGCUGGCGCCGGCUGGGCAACAUUCCGAGGGGACCGUCCCCUCGGUAAUGGCGAAUGGGACCCA [A8C C18G], the self-cleavage was found to be 0.0875.

As for GGCCGGCCUGGUCCCAGUCUCCUCGCUGGCGCCGGCUGGGCAACAUUCCGAGGGGACCGUCCCCUCGGUAAUGGCGAAUGGGACCCA [A8C C18U], the self-cleavage came to 0.369.

As for GGCCGGCCUGGUCCCAGCCUCCUCGCUGGCGCCGGCUGGGCAACAUUCCGCGGGGACCGUCCCCUCGGUAAUGGCGAAUGGGACCCA [A8C A51C], the self-cleavage was 0.802.

In the case of GGCCGGCCUGGUCCCAGCCUCCUCGCUGGCGCCGGCUGGGCAACAUUCCGGGGGGACCGUCCCCUCGGUAAUGGCGAAUGGGACCCA [A8C A51G], the self-cleavage was found to be 0.997.

As to GGCCGGCCUGGUCCCAGCCUCCUCGCUGGCGCCGGCUGGGCAACAUUCCGAGGGGACCGUCCCCUCGGUAAUGGCGGAUGGGACCCA [A8C A77G], the self-cleavage came to 0.798.

Turning to GGCCGGCCUGGUCCCAGCCUCCUCGCUGGCGCCGGCUGGGCAACAUUCCGAGGGGACCGUCCCCUCGGUAAUGGCGAUUGGGACCCA [A8C A78U], the self-cleavage stood at 0.119.

In the case of GGCCGGCCUGGUCCCAGCCUCCUCGCUGGCGCCGGCUGGGCAACAUUCCGAGGGGACCGUCCCCUCGGUAAUGGCGAGUGGGACCCA [A8C A78G], the self-cleavage turned out to be 0.35.

Regarding GGCCGGUAUGGUCCCAGCCUCCUCGCUGGCGCCGGCUGGGCAACAUUCCGAGGGGACCGUCCCCUCCGUAAUGGCGAAUGGGACCCA [C7U G67C], the self-cleavage was 0.529.

For GGCCGGCCUGGUCCCAGCCUCCUCGCUGGCGCCGGCUGGGCAACAUUCCGAGGGGACCGUCCCCUCGGUCAUGGCGAAUGGGACCCA [A8C A70C], the self-cleavage was 0.612.

On to GGCCGGUAUGGUCCCAGCCUCCUCGCUGGCGCCGGCUGGGCAACAUUCCGAGGGGACCGUCCCCUCGGUAAUGGCCAAUGGGACCCA [C7U G76C], for which the self-cleavage came to 0.815.

In the case of GGCCGGCCUGGUCCCUGCCUCCUCGCUGGCGCCGGCUGGGCAACAUUCCGAGGGGACCGUCCCCUCGGUAAUGGCGAAUGGGACCCA [A8C A16U], the self-cleavage was 1.16.

For GGCCGGCCUGGUCCCAGCCUCCUCGCUGGCGCCGGCUGGGCAACUUUCCGAGGGGACCGUCCCCUCGGUAAUGGCGAAUGGGACCCA [A8C A45U], the self-cleavage is 0.429.

As to GGCCGGCCUGGUCCCAGCCUCCUCGCUGGCGCCGGCUGGGCAACCUUCCGAGGGGACCGUCCCCUCGGUAAUGGCGAAUGGGACCCA [A8C A45C], the self-cleavage stood at 0.156.

Take GGCCGGCCUGGUACCAGCCUCCUCGCUGGCGCCGGCUGGGCAACAUUCCGAGGGGACCGUCCCCUCGGUAAUGGCGAAUGGGACCCA [A8C C13A]: the self-cleavage turned out to be 0.266.

Regarding GGCCGGCCUGGUUCCAGCCUCCUCGCUGGCGCCGGCUGGGCAACAUUCCGAGGGGACCGUCCCCUCGGUAAUGGCGAAUGGGACCCA [A8C C13U], the self-cleavage amounted to 0.356.

GGCCGGUAUGGUCCCAGCCUCCUCGCCGGCGCCGGCUGGGCAACAUUCCGAGGGGACCGUCCCCUCGGUAAUGGCGAAUGGGACCCA [C7U U27C]: the self-cleavage turned out to be 0.404.

Regarding GGCCGGUAUGGUCCCAGCCUCCUCGCAGGCGCCGGCUGGGCAACAUUCCGAGGGGACCGUCCCCUCGGUAAUGGCGAAUGGGACCCA [C7U U27A], the self-cleavage came to 0.519.

As for GGCCGGUAUGGUCCCAGCCUCCUCGCUGGCGCCGGCUGGGCAACAUUCCGAGGGGACCGUCCCCGCGGUAAUGGCGAAUGGGACCCA [C7U U65G], the self-cleavage amounted to 0.856.

Regarding GGCCGGUAUGGUCCCAGCCUCCUCGCUGGCGCCGGCUGGGCAACAUUCCGAGGGGACCGUCCCCUCGGGAAUGGCGAAUGGGACCCA [C7U U69G], the self-cleavage was 0.855.

In the case of GGCCGGUAUGGUCCCAGCCUCCUCGCUGGCGCCGGCUGGGCAACAUUCCGAGGGGACCGUCCCCUCGGUAAUGCCGAAUGGGACCCA [C7U G74C], the self-cleavage was determined as 0.325.

For the variant GGCCGGUAUGGUCCCAGCCUCCUCGCUGGCGCCGGCUGGGCAACAAUCCGAGGGGACCGUCCCCUCGGUAAUGGCGAAUGGGACCCA [C7U U46A], the self-cleavage is 0.623.

On to GGCCGGUAUGGUCCCAGCCUCCUCGCUGGCGCCGGCUGGGCAACACUCCGAGGGGACCGUCCCCUCGGUAAUGGCGAAUGGGACCCA [C7U U46C], for which the self-cleavage was 0.447.

As to GGCCGGUAUGGUCCCAGCCUCCUCGCUGGCGCCGGCUGGGCAACAUUCCGAGGGGACCGUCCCCUCGGUAAUUGCGAAUGGGACCCA [C7U G73U], the self-cleavage was determined as 0.277.

In the case of GGCCGGUAUGGUCCCAGCCUCCUCGCUGGCGCCGGCUGGGCAACAUUCCGAGGGGACCGUCCCCUCGGUAAUCGCGAAUGGGACCCA [C7U G73C], the self-cleavage stood at 0.224.

GGCCGGUAUGGUCCCAGCCUCCUCGCUGGCGCCGGCUGGGCAACAUUCCGAGGGGACCGUCCCCUCGGUAAUAGCGAAUGGGACCCA [C7U G73A]: the self-cleavage came to 0.424.
